Results from patent US20220378931A1 (Eli Lilly, published 2022).
Where two headings read alike, the source gives them in different places.

Key:
[1] = target: T1, rabbit serum albumin (rabbit, UniProt P49065 25-608); assay: SPR (Biacore 8K), albumin immobilised, 25 C
T1 construct: bought protein, amine-coupled to a CM5 chip; also called Rabbit SA
Description: (§1) Immobilization of serum albumin to a Series S Sensor Chip CM5 surface is performed according to the manufacturer's instructions (Amine Coupling Kit BR-1000-50). Briefly, carboxyl groups on the sensor chip surfaces (flow cell 1 and 2) are activated by injecting 70 μL of a mixture containing 75 mg/ml EDC and 11.5 mg/ml NHS at 10 μL/min. Human, cynomolgus monkey, mouse, rat, pig, dog, cow and rabbit serum albumin are diluted in 10 mM NaOAc pH 4.0 (BR-1003-49) at 1, 1, 3, 1, 1, 1, 1 and 1 μg/mL and then injected over the activated chip surfaces (flow cell 2, […]) at 10 μL/min for 90 sec (human, mouse, rat, pig and cow serum albumin are obtained from Sigma Aldrich (St. Louis, Mo.); cynomolgus monkey serum albumin is obtained from Holzel Diagnostika (Cologne, Germany); dog serum albumin is obtained from Molecular Innovations (Novi, Mich.); and rabbit serum albumin is obtained from Fitzgerald Industries International (Acton, Mass.)). […] Excess reactive groups on the surfaces (flow cell 1 and 2) are deactivated by injecting 70 μL of 1 M ETA HCl—NaOH pH 8.5 at 10 μL/min.
(§2) 150 μL of sample is individually injecting sequentially across the immobilized serum albumins surface and then dissociates for 600 sec at 50 μL/min flow rate at 25° C. The surface is regenerated by injecting 10 mM glycine-HCl pH 1.5 (BR-1003-54) at 50 μL/min for 100 sec. The resulting sensorgrams are analyzed using Biacore 8K Insight Evaluation Software (version 2.0.15.12933) 1:1 binding kinetics or steady-state affinity model fitting to calculate the binding kinetic parameter association rate (ka), dissociation rate (kd), and equilibrium dissociation constant (KD)

[2] = target: T2, human insulin receptor isoform A with C-terminal C9 tag (human, UniProt P06213 28-1382); assay: 125I-insulin competition SPA, hIR-A membranes, 0.1% BSA
T2 construct: membranes of stably transfected HEK293 cells; also called hIR-A; human IR-A
Description: (§3) The assays are performed with a SPA method using polyvinyltoluene (PVT) wheat germ agglutinin-coupled SPA beads (Perkin Elmer). Assay buffer contains 50 mM Tris-HCl, pH 7.5, 150 mM NaCl and either A) 0.1% w/v fatty-acid free BSA; B) 0.1% w/v fatty-acid free human serum albumin (HSA); C) 0.1% w/v rat serum albumin (RSA); or D) 0.001% Nonidet P-40 Substitute (NP-40, Roche Diagnostics). Ten-point concentration response curves using three-fold serial dilutions of test samples or controls are prepared in Assay Buffer using a Freedom/Evo robot (Tecan).
(§4) Percent specific inhibition (y-axis) is plotted versus the log concentration of compound (x-axis). […] Reported Ki values are shown as the geometric mean with the standard error (Delta Method Standard Error) and the number of independent replicate determinations used to calculate the geometric mean indicated by n.

[3] = target: T2, human insulin receptor isoform A with …; assay: 125I-insulin competition SPA, hIR-A membranes, 0.1% HSA
Description: as §3, §4

[4] = target: T3, human insulin receptor isoform B with C-terminal C9 tag (human, UniProt P06213 28-1382); assay: 125I-insulin competition SPA, hIR-B membranes, 0.1% BSA
T3 construct: membranes of stably transfected HEK293 cells; also called hIR-B; human IR-B
Description: as §3, §4

[5] = target: T3, human insulin receptor isoform B with …; assay: 125I-insulin competition SPA, hIR-B membranes, 0.1% HSA
Description: as §3, §4

[6] = target: T4, human serum albumin (human, UniProt P02768 25-609); assay: SPR (Biacore 8K), albumin immobilised, 25 C, 1:1 kinetics
T4 construct: bought protein, amine-coupled to a CM5 chip; also called Human SA; HSA
Description: as §1, §2

[7] = target: T5, cynomolgus monkey serum albumin (cynomolgus monkey, UniProt A2V9Z4 25-608); assay: as above
T5 construct: bought protein, amine-coupled to a CM5 chip; also called Cyno SA
Description: as §1, §2

[8] = target: T6, mouse serum albumin (mouse, UniProt P07724 25-608); assay: as above
T6 construct: bought protein, amine-coupled to a CM5 chip; also called Mouse SA
Description: as §1, §2

[9] = target: T7, rat serum albumin (rat, UniProt P02770 25-608); assay: as above
T7 construct: bought protein, amine-coupled to a CM5 chip; also called Rat SA; RSA
Description: as §1, §2

[10] = target: T8, pig serum albumin (pig, UniProt P08835 25-607); assay: as above
T8 construct: bought protein, amine-coupled to a CM5 chip; also called Pig SA
Description: as §1, §2

[11] = target: T9, dog serum albumin (dog, UniProt P49822 25-608); assay: as above
T9 construct: bought protein, amine-coupled to a CM5 chip; also called Dog SA
Description: as §1, §2

[12] = target: T2, human insulin receptor isoform A with …; assay: 125I-insulin competition SPA, hIR-A membranes, 0.001% NP-40
Description: as §3, §4

[13] = target: T3, human insulin receptor isoform B with …; assay: 125I-insulin competition SPA, hIR-B membranes, 0.001% NP-40
Description: as §3, §4

[14] = target: T10, cow serum albumin (cow, UniProt P02769 25-607); assay: SPR (Biacore 8K), albumin immobilised, 25 C, steady-state affinity
T10 construct: bought protein, amine-coupled to a CM5 chip; also called Cow SA; Bovine SA
Description: as §1, §2

[15] = target: T10, cow serum albumin; assay: as above; remark: listed apart in the source

Row | Binder | binding result [1] | Ki [2] [nM] | Kd [6] [nM] | koff [6] [s⁻¹] | kon [6] [M⁻¹ s⁻¹] | Kd [7] [nM] | koff [7] [s⁻¹] | kon [7] [M⁻¹ s⁻¹] | Kd [8] [nM] | koff [8] [s⁻¹] | kon [8] [M⁻¹ s⁻¹] | Kd [9] [nM] | koff [9] [s⁻¹] | kon [9] [M⁻¹ s⁻¹] | Kd [10] [nM] | koff [10] [s⁻¹] | kon [10] [M⁻¹ s⁻¹] | Kd [11] [nM] | koff [11] [s⁻¹] | kon [11] [M⁻¹ s⁻¹] | other results
1 | INS Analog 30 (other, single-chain insulin B-L2-A-L1-VHH fusion; also called Ex. 30) FVSQHLCGSHLVEALRLVCGERGFHYTPKTGGGGGGGIVEQCCHSICSLYQLENYCGPGPQPGPQPGPQPGPQPGPQPGPQPGPQPGPQEVQLLESGGGLVQPGGSLRLSCAASGRYIDETAVAWFRQAPGKEREFVAGIGGGVDITYYADSVKGRFTISRDNSKNTLYLQMNSLRPEDTAVYYCAARPGRPLITSKVADLYPYWGQGTLVTVSSPP | no binding (tested: up to 1000 nM) | 127 | 0.73 | 0.00011 | 160000 | 4.3 | 0.00069 | 160000 | 39 | 0.0071 | 190000 | 30 | 0.0051 | 170000 | 80 | 0.0092 | 110000 | 13 | 0.0022 | 170000 | Ki [3]: 17.2 nM; Ki [4]: 100 nM; Ki [5]: 24.5 nM; Ki [12]: 49.3 nM; Ki [13]: 60 nM; Kd [14]: 370 nM
2 | INS Analog 28 (other, single-chain insulin B-L2-A-L1-VHH fusion; also called Ex. 28) FVSQHLCGSHLVEALRLVCGERGFFYTPKTGGGGGGGIVEQCCHSICSLYQLENYCGPGPQPGPQPGPQPGPQPGPQPGPQPGPQPGPQEVQLLESGGGLVQPGGSLRLSCAASGRYIDETAVAWFRQAPGKEREFVAGIGGGVDITYYADSVKGRFTISRDNSKNTLYLQMNSLRPEDTAVYYCAARPGRPLITSKVADLYPYWGQGTLVTVSSPP | no binding (tested: up to 1000 nM) | 71 | 0.73 | 0.00012 | 160000 | 4.1 | 0.00067 | 170000 | 37 | 0.006 | 160000 | 26 | 0.0048 | 180000 | 75 | 0.0084 | 110000 | 12 | 0.0021 | 170000 | Ki [12]: 32.7 nM; Kd [14]: 400 nM
3 | INS Analog 26 (other, single-chain insulin B-L2-A-L1-VHH fusion; also called Ex. 26) FVSQHLCGSHLVEALRLVCGERGFFYTPKTGGGGGGGIVEQCCTSICSLYQLENYCGPGPQPGPQPGPQPGPQPGPQPGPQPGPQPGPQEVQLLESGGGLVQPGGSLRLSCAASGRYIDETAVAWFRQAPGKEREFVAGIGGGVDITYYADSVKGRFTISRDNSKNTLYLQMNSLRPEDTAVYYCAARPGRPLITSKVADLYPYWGQGTLVTVSSPP | no binding (tested: up to 1000 nM) | 389 | 0.49 | 9.4e-05 | 190000 | 3.9 | 0.00069 | 180000 | 35 | 0.0069 | 200000 | 32 | 0.0056 | 170000 | 87 | 0.0098 | 110000 | 13 | 0.0023 | 170000 | Ki [3]: 40.6 nM; Ki [4]: 405 nM; Ki [5]: 105 nM; Ki [12]: 105 nM; Ki [13]: 214 nM; Kd [14]: 400 nM
4 | INS Analog 29 (other, single-chain insulin B-L2-A-L1-VHH fusion; also called Ex. 29) FVSQHLCGSHLVEALRLVCGERGFHYTPKTGGGGGGGIVEQCCHSICSLYQLENYCGGGGGQGGGGQGGGGQGGGGQGGGGQEVQLLESGGGLVQPGGSLRLSCAASGRYIDETAVAWFRQAPGKEREFVAGIGGGVDITYYADSVKGRFTISRDNSKNTLYLQMNSLRPEDTAVYYCAARPGRPLITSKVADLYPYWGQGTLVTVSSPP | no binding (tested: up to 1000 nM) | 179 | 0.74 | 0.00013 | 180000 | 4.4 | 0.00078 | 180000 | 48 | 0.0087 | 180000 | 32 | 0.0065 | 200000 | 86 | 0.013 | 150000 | 16 | 0.0032 | 190000 | Ki [3]: 28.2 nM; Ki [4]: 124 nM; Ki [5]: 38.1 nM; Ki [12]: 34 nM; Ki [13]: 62.5 nM; Kd [14]: 380 nM
5 | INS Analog 25 (other, single-chain insulin B-L2-A-L1-VHH fusion; also called Ex. 25) FVSQHLCGSHLVEALRLVCGERGFFYTPKTGGGGGGGIVEQCCTSICSLYQLENYCGGGGGQGGGGQGGGGQGGGGQGGGGQEVQLLESGGGLVQPGGSLRLSCAASGRYIDETAVAWFRQAPGKEREFVAGIGGGVDITYYADSVKGRFTISRDNSKNTLYLQMNSLRPEDTAVYYCAARPGRPLITSKVADLYPYWGQGTLVTVSSPP | no binding (tested: up to 1000 nM) | 630 | 0.32 | 8.4e-05 | 260000 | 3.5 | 0.00079 | 230000 | 42 | 0.0092 | 220000 | 34 | 0.0066 | 200000 | 90 | 0.011 | 130000 | 16 | 0.0033 | 200000 | Ki [3]: 125 nM; Ki [4]: 790 nM; Ki [5]: 279 nM; Ki [12]: 174 nM; Ki [13]: 641 nM; Kd [15]: 390 nM
